Source: PMC12007569, “Molecular basis of pyruvate transport and inhibition of the human mitochondrial pyruvate carrier” (Science Advances, 2025)

Target: T1, human MPC1L/MPC2 heterodimer (Homo sapiens, UniProt P0DKB6;O95563)
T1 construct: MPC1L, human, wild-type cDNA, UniProt P0DKB6; MPC2, human, wild-type cDNA, UniProt O95563; Heterodimer formed beforehand (co-expressed and co-purified) and then mixed with the nanobody or the Pro-macrobody; also called hMPC1L/MPC2; hMPC1L/2 heterodimer; source: S. cerevisiae W303-1B, purified from mitochondria (LMNG, Nickel Sepharose, on-column TEV digestion); not shown: His tag, C-terminal, …
Assay: pull-down; 75 μg hMPC1L/MPC2 incubated at a stoichiometric ratio with each nanobody for 1 hour at 4°C, then Ni-NTA Superflow resin 1 hour at 4°C; washed with buffer B, eluted with 250 mM imidazole; fractions on SDS-PAGE
Details: both partners purified

T1 sequence (P0DKB6 whole entry, chain 1 of 2): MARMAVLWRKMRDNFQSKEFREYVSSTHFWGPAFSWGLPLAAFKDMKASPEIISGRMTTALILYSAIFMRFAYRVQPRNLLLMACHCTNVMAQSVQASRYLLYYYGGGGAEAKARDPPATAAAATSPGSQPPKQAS
T1 sequence (O95563 whole entry, chain 2 of 2): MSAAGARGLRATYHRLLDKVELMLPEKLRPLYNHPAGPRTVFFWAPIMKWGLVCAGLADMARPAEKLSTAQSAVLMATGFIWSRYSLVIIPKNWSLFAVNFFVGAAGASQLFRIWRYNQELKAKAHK

B1: nanobody CA19425 (VHH)
VHH: QVQLVESGGGLVQAGGSLRLSCAASGRTFSAYGISTYTMGWFRQAPGKEREFVAAIGRDSGFTYYEDSVKGRFTINADNAENTVYLQMNSLKPEDTAVYYCAASSYYGRPNVDLMAYWGKGTQVTVPP
notes: as the nanobody part of m4, held in the PMb chain of the deposited entries (modelled residues 4 to 131); One of six nanobodies (four families); also called MPC2-specific nanobody; source: from a phage display library (pMESy4) of a llama immunised with hMPC1L/MPC2 proteoliposomes
B1: binds.
